Results from publication PMC4811591, “Role of the Substrate Specificity-Defining Residues of Human SIRT5 in Modulating the Structural Stability and Inhibitory Features of the Enzyme” (PLoS ONE, 2016).
Numbering of substitutions follows the chain as printed. Numbers in names are those of the source.

Key:
Type in all cases: biochemical, human
[1] = substrate: NC(=O)c1ccc[n+]([C@@H]2O[C@H](COP(=O)([O-])OP(=O)(O)OC[C@H]3O[C@@H](n4cnc5c(N)ncnc54)[C@H](O)[C@@H]3O)[C@@H](O)[C@H]2O)c1; assay: SIRT1 deacetylation reaction, trypsin coupled assay with Fluor-de-lys; settings: other: deacetylation, acetyl substrate; pH 8.0; 25.0 °C
Procedure: (§1) The steady state rates of the enzyme catalyzed reactions were derived from the time dependent changes in the fluorescence signal, and the data were analyzed by the ternary complex kinetic mechanism (Eq 4) via Grafit 4 software.
(§2) The steady-state kinetic data were fitted globally by the competitive, mixed, and noncompetitive inhibition models using the DYNAFIT software based on the rapid-equilibrium approximation [43]. All the parameters were allowed to float except for the enzyme concentration. The software utilizes several model-discrimination criteria, including the second order Akaike Information Criterion (AIC) [44, 45], so that the best model out of the three different candidates could be identified.

[2] = substrate: NC(=O)c1ccc[n+]([C@@H]2O[C@H](COP(=O)([O-])OP(=O)(O)OC[C@H]3O[C@@H](n4cnc5c(N)ncnc54)[C@H](O)[C@@H]3O)[C@@H](O)[C@H]2O)c1; assay: SIRT5 wild type desuccinylation reaction, trypsin coupled fluorescence assay with Ac-SucLys-AMC; settings: other: desuccinylation, succinyl substrate, 25°C, pH 8.0
Procedure: as §1, §2

[3] = substrate: NC(=O)c1ccc[n+]([C@@H]2O[C@H](COP(=O)([O-])OP(=O)(O)OC[C@H]3O[C@@H](n4cnc5c(N)ncnc54)[C@H](O)[C@@H]3O)[C@@H](O)[C@H]2O)c1; assay: SIRT5 Y102A deacetylation reaction, trypsin coupled assay with Fluor-de-lys; settings: other: deacetylation, acetyl substrate; pH 8.0; 25.0 °C
Procedure: as §1, §2

[4] = substrate: NC(=O)c1ccc[n+]([C@@H]2O[C@H](COP(=O)([O-])OP(=O)(O)OC[C@H]3O[C@@H](n4cnc5c(N)ncnc54)[C@H](O)[C@@H]3O)[C@@H](O)[C@H]2O)c1; assay: SIRT5 Y102A desuccinylation reaction, trypsin coupled assay with Ac-SucLys-AMC; settings: other: desuccinylation, succinyl substrate; pH 8.0; 25.0 °C
Procedure: as §1, §2

[5] = substrate: NC(=O)c1ccc[n+]([C@@H]2O[C@H](COP(=O)([O-])OP(=O)(O)OC[C@H]3O[C@@H](n4cnc5c(N)ncnc54)[C@H](O)[C@@H]3O)[C@@H](O)[C@H]2O)c1; assay: SIRT5 R105I deacetylation reaction, trypsin coupled assay with Fluor-de-lys; settings: other: deacetylation, acetyl substrate; pH 8.0; 25.0 °C
Procedure: as §1, §2

[6] = substrate: NC(=O)c1ccc[n+]([C@@H]2O[C@H](COP(=O)([O-])OP(=O)(O)OC[C@H]3O[C@@H](n4cnc5c(N)ncnc54)[C@H](O)[C@@H]3O)[C@@H](O)[C@H]2O)c1; assay: SIRT5 Y102A/R105I deacetylation reaction, trypsin coupled assay with Fluor-de-lys; settings: other: deacetylation, acetyl substrate; pH 8.0; 25.0 °C
Procedure: The sirtuin catalyzed deacetylase and desuccinylase reactions were measured via the trypsin coupled assay system as described by Madsen et al [39]. […] Since trypsin was used as a coupling enzyme, its concentration was optimized to ensure the emergence of minimal or negligible lag-phase prior to the onset of the steady state phase [42]. […] The steady state rates of the enzyme catalyzed reactions were derived from the time dependent changes in the fluorescence signal, and the data were analyzed by the ternary complex kinetic mechanism (Eq 4) via Grafit 4 software.
as §2
Other reaction conditions were the same as described above. The data were fitted by Eq 5 by Grafit 4.0.

B1: SIRT1 (Homo sapiens) (protein)
chain: MIGTDPRTILKDLLPETIPPPELDDMTLWQIVINILSEPPKRKKRKDINTIEDAVKLLQECKKIIVLTGAGVSVSCGIPDFRSRDGIYARLAVDFPDLPDPQAMFDIEYFRKDPRPFFKFAKEIYPGQFQPSLCHKFIALSDKEGKLLRNYTQNIDTLEQVAGIQRIIQCHGSFATASCLICKYKVDCEAVRGDIFNQVVPRCPRCPADEPLAIMKPEIVFFGENLPEQFHRAMKYDKDEVDLLIVIGSSLKVRPVALIPSSIPHEVPQILINREPLPHLHFDVELLGDCDVIINELCHRLGGEYAKLCCNPVKLSEITEKPPRTQKELAYLSELPPTPLHVSEDSSSPERTSPPDSSVIVTLLDQAAKSNDDLDVSESKGCMEEKPQEVQTSRNVESIAEQMENPDLKNVGSSTGEKNERTSVAGTVRKCWPNRVAKEQISRRLDGNQYLFLPPNRYIFHGAEVYSDSEDDVLSSSSCGSNSDSGTCQSPSLEEPMEDESEIEEFYNGLEDEPDVPERAGGAGFGTDGDDQEAINEAISVKQEVTDMNYPSNKS
notes: SIRT1 (193–747) and SIRT5 (51–301) were cloned into the pLIC-His expression vector; His tag (pLIC-His vector); made in house; host or cells: E. coli BL21(DE3) Star
Work on B1 yielded a Km [1] of 388 ± 73 µM, a kcat [1] of 0.000579 ± 9.1e-05 s⁻¹ and a kcat/Km [1] of 1.63 M⁻¹ s⁻¹.

B2: SIRT5 wild type (Homo sapiens) (protein)
chain: KHIVIISGAGVSAESGVPTFRGAGGYWRKWQAQDLATPLAFAHNPSRVWEFYHYRREVMGSKEPNAGHRAIAECETRLGKQGRRVVVITQNIDELHRKAGTKNLLEIHGSLFKTRCTSCGVVAENYKSPICPALSGKGAPEPGTQDASIPVEKLPRCEEAGCGGLLRPHVVWFGENLDPAILEEVDRELAHCDLCLVVGTSSVVYPAAMFAPQVAARGVPVAEFNTETTPATNRFRFHFQGPCGTTLPEAL
notes: as for B1
B2 was tested, and the Km [2] was 69 ± 9 µM.

B3: SIRT5 Y102A (Homo sapiens; Y102A) (protein)
chain: B2 chain with Y52A
notes: as for B1
B3 was tested, and the Km [3] was 1605 ± 321 µM and the Km [4] was 321 ± 49 µM.

B4: SIRT5 R105I (Homo sapiens; R105I) (protein)
chain: B2 chain with R55I
notes: as for B1
B4 showed a Km [5] of 609 ± 120 µM.

B5: SIRT5 Y102A/R105I (Homo sapiens; R105I/Y102A) (protein)
chain: B2 chain with Y52A, R55I
notes: as for B1
Work on B5 yielded a Km [6] of 1194 ± 667 µM.
